The text below walks through data of PMC2173048 (The Journal of Cell Biology, 2002).

The assay addresses T1, recombinant Kap121p (yeast, UniProt P32337 1-1089).
T1 sequence (looked up): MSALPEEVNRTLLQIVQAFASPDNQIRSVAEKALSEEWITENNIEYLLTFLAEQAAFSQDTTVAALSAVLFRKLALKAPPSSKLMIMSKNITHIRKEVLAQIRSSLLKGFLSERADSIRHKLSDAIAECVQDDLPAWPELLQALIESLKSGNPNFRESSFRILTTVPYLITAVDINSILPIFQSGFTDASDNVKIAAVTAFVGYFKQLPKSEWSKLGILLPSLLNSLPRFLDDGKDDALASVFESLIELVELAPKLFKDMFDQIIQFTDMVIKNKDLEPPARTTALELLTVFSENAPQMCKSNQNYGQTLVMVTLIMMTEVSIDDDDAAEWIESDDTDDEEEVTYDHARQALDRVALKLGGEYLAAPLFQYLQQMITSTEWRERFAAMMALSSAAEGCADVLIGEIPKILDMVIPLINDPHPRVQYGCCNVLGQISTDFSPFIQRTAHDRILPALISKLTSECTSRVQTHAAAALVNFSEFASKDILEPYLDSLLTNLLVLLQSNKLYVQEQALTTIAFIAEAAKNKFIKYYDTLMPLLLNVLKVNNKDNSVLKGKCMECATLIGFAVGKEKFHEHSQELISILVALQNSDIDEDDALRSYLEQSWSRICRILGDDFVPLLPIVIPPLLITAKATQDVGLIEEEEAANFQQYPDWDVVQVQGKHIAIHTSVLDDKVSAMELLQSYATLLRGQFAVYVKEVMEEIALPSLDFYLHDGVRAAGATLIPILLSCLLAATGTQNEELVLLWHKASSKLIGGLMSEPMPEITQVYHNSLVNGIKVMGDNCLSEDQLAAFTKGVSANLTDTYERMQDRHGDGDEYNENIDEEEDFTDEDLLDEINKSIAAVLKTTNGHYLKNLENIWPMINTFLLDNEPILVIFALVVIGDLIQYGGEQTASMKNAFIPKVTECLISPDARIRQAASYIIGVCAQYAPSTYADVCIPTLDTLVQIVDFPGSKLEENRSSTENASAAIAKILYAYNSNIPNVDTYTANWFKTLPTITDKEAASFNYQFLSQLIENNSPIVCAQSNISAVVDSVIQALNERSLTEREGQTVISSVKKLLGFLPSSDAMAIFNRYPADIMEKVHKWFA
In words: pull-down.

As for RNAEFKVSKNSTSFKNPRRLEIKDGRSLFLRNRGKIHSGVLSSIESDL (domain or fragment, yeast, UniProt Q03790 401-448, looked up) [GST-401–448], the binding result is recorded as “binds”.
